Experimental data published in patent US20220324970A1 (Janssen / Centocor, published 2022).
Like-named read-outs stand apart in the source and are kept apart here. Values belong to the binder of their own block, whether it stands above or below them.

Experiments:
[1] = target: T1, human pIgR extracellular domain 1 (D1) (human, UniProt P01833 19-127); test: ECL (MSD) heat map, HIS-tagged construct captured via anti-HIS, anti-human-Fc detection;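 also: VHH-mono-Fc molecules tested at 100 µg/ml for 2 h on captured His-tagged pIgR constructs (10 µg/ml), read-out as electrochemiluminescence units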
T1 construct: HIS-tagged construct made in HEK293 cells; also called hpIgR domain-1
T1 sequence (P01833 other isoform, or with tags, fused parts or gaps limits assumed): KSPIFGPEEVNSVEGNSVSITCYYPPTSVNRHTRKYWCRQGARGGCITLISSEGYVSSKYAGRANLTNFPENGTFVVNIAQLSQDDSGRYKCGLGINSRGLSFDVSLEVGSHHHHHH
Procedure: (§1) A meso-scale discovery (MSD) platform was used for conducting epitope mapping and epitope burial studies. To test the binding of VHH-mono-Fc molecules to purified pIgR protein constructs, Streptavidin MSD plates were coated with a biotinylated anti-HIS antibody (2 μg/ml in PBS) for 1 hour at RT with 1000 rpm, washed 3× with PBT (PBS+0.1% Tween-20), incubated with blocking buffer for 1 hour at RT, incubated with His-tagged pIgR proteins (10 μg/ml in PBS) for 2 hours at RT with 1000 rpm, washed 3× with PBT, incubated with VHH-mono-Fc molecules (100 μg/ml in PBS) for 2 hours at RT with 1000 rpm, washed 3× with PBT, incubated with ruthenylated-anti-human-Fc antibody (2 μg/ml in PBS) for 1 hour at RT with 1000 rpm, washed 3× with PBT and read plates in 40 ul reading buffer using the MSD imager. ECLU values were plotted as a heatmap.
(§2) Binding of VHH-mFc molecules were tested to immobilized pIgR constructs by the electrochemiluminescence method.

[2] = target: T2, human pIgR extracellular domain 5 (D5) (human, UniProt P01833 460-565); test: as above
T2 construct: HIS-tagged construct made in HEK293 cells; also called hpIgR domain 5
Procedure: as §1, §2

hpIgR_D3 = target: T3, hpIgR_D3; test: as above
T3 construct: HIS-tagged construct from HEK293 cells; also called human pIgR extracellular domain 3 (D3); hD3
Procedure: as §1, §2
T3 HIS-tagged domain construct: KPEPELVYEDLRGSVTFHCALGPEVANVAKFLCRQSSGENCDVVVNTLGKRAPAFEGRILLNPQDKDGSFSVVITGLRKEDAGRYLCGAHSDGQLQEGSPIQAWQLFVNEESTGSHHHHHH

[3] = target: T4, human pIgR extracellular domain (ECD) (human, UniProt P01833 19-638); test: BLI (Octet), VHH-mono-Fc and hpIgR ectodomain
T4 construct: also called hpIgR ECD
T4 sequence (P01833 other isoform, or with tags, fused parts or gaps): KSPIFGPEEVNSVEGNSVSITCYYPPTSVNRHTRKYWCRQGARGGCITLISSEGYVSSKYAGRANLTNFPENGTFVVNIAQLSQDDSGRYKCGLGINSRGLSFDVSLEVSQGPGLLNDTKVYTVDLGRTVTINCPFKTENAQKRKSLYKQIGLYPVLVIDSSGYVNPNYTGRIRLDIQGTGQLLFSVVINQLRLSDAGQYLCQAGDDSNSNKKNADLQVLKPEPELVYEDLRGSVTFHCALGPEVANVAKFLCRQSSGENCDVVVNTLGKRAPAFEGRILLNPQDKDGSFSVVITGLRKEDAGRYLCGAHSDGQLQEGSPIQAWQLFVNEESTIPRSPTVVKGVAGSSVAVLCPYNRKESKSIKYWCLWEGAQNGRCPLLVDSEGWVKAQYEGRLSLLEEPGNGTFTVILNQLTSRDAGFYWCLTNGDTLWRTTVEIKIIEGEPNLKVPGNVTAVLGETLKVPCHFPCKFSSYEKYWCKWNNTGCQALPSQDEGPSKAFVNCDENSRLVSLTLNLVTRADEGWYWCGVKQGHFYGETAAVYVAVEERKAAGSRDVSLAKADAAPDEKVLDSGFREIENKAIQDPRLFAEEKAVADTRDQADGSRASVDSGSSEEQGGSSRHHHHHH

[4] = target: T4, human pIgR extracellular domain (ECD); test: ECL (MSD), anti-VHH detection against anti-Fc detection
[5] = target: T5, human pIgR, full-length, on cells (human, UniProt P01833 19-764); test: flow cytometry on MDCK-hpIgR cells; summary table, repeats Table 1
T5 construct: whole, on cells; Used for the flow cytometry EC50 values (MDCK-hpIgR) and for the transcytosis read-outs; also called hpIgR; cell-surface hpIgR
T5 sequence (P01833 19-764): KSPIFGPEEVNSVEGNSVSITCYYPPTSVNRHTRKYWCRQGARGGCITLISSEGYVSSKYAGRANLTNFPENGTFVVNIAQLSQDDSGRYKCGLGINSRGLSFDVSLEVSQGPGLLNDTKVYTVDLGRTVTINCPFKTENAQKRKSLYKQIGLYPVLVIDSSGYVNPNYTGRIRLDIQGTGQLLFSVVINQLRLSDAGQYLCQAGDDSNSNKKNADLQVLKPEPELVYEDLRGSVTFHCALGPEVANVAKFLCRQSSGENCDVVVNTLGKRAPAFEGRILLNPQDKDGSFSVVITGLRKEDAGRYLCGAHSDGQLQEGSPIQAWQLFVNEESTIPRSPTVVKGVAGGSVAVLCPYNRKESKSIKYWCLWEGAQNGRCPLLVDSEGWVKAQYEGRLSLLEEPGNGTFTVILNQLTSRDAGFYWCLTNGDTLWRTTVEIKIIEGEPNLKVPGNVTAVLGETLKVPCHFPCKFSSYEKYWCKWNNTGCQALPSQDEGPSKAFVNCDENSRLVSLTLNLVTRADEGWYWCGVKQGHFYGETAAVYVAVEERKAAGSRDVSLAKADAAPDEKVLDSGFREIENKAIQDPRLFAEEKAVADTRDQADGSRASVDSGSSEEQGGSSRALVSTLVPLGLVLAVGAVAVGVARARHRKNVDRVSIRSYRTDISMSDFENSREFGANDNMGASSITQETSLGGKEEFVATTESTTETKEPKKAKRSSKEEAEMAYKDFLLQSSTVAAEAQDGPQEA

[6] = target: T4, human pIgR extracellular domain (ECD); test: BLI; summary table, repeats Table 1
[7] = target: T6, human pIgR extracellular domain 4-domain 5 (D4-D5) (human, UniProt P01833 350-565); test: ECL (MSD) heat map, HIS-tagged construct captured via anti-HIS, anti-human-Fc detection
T6 construct: HIS-tagged construct made in HEK293 cells; also called hpIgR domains 4-5
T6 chain: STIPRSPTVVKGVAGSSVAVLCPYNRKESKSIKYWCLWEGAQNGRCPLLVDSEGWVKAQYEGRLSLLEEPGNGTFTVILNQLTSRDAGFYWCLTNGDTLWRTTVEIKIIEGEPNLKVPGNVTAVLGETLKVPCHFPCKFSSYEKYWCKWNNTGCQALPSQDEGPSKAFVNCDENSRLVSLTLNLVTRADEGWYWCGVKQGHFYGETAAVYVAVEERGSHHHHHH

hpIgR_D2-D3 [8] = target: T7, hpIgR_D2-D3; test: BLI (Octet RED384), 1:1 fit, 25 C, PBS
T7 construct: HIS-tagged construct from HEK293 cells; also called human pIgR extracellular domain 2-domain 3 (D2-D3); hD2-D3
Procedure: (§3) Bio-layer Interferometry was performed as follows. […] Data were collected with Octet Data Acquisition version 7.1.0.87 (ForteBio) and analyzed using Octet Data Analysis version 7.1 (ForteBio). To measure binding kinetics between VHH-mono-Fc molecules and HIS-tagged pIgR proteins, VHH-mono-Fc was immobilized on amine-reactive generation-2 (ARG2) biosensors according to manufacturer's instructions and increasing concentrations of pIgR proteins were exposed to sensor-immobilized VHH. In some cases, HIS-tagged pIgR proteins were immobilized on anti-HIS biosensors and exposed to increasing concentrations of VHH-mono-Fc molecules. Association and dissociation rates were measured by the shift in wavelength (nm). […] All reactions were performed at 25° C. in PBS.
T7 HIS-tagged domain construct: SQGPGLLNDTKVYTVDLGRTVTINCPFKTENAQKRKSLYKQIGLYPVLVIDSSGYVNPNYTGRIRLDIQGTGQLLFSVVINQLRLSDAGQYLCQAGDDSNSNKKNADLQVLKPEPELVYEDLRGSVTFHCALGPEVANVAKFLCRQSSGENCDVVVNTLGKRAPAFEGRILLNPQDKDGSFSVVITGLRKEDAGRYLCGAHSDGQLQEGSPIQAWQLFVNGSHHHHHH

[9] = target: T8, human pIgR extracellular domain 2 (D2) (human, UniProt P01833 128-242); test: BLI (Octet RED384), 1:1 fit, 25 C, PBS
T8 construct: HIS-tagged construct made in HEK293 cells; also called hpIgR domain 2
Procedure: as §3

[10] = target: T4, human pIgR extracellular domain (ECD); test: BLI (Octet RED384), 1:1 fit, 25 C, PBS
Procedure: as §3

[11] = target: T9, human pIgR extracellular domain 1-domain 2 (D1-D2) (human, UniProt P01833 19-240); test: BLI (Octet RED384), 1:1 fit, 25 C, PBS
T9 construct: HIS-tagged construct made in HEK293 cells
T9 sequence (P01833 other isoform, or with tags, fused parts or gaps limits assumed): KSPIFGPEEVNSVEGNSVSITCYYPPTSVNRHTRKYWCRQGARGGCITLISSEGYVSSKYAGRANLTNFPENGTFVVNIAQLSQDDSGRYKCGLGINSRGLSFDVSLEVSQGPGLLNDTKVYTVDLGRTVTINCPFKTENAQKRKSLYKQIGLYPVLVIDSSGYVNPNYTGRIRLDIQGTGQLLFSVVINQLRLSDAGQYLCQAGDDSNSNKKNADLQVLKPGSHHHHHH
Procedure: as §3

hpIgR_D2-D3 [12] = target: T7, hpIgR_D2-D3; test: BLI (Octet RED384), 1:1 fit, 25 C, PBS; column kdis
[13] = target: T8, human pIgR extracellular domain 2 (D2); test: as above
[14] = target: T4, human pIgR extracellular domain (ECD); test: as above
[15] = target: T9, human pIgR extracellular domain …; test: as above
[16] = target: T5, human pIgR, full-length, on cells; test: cell-based or functional assay
[17] = target: T4, human pIgR extracellular domain (ECD); test: ECL (MSD), hpIgR-ECD coated, anti-VHH detection
Procedure: (§4) To check whether VHH recognizes a buried epitope on pIgR, EC₅₀ values were measured for VHH-mono-Fc molecules binding to hpIgR-ECD protein by electrochemiluminescence using two different detection antibodies, an anti-Fc antibody and an anti-VHH antibody. pIgR ECD (10 μg/ml in PBS) was coated on high-bind MSD plates for 2 hours at RT with 1000 rpm, incubated with blocking buffer for 1 hour at RT, incubated with VHH-mono-Fc molecules (increasing concentrations in PBS) for 2 hours at RT with 1000 rpm, washed 3× with PBT, incubated with ruthenylated secondary antibody (2 μg/ml in PBS) for 1 hour at RT with 1000 rpm, washed 3× with PBT and read plates in 40 ul reading buffer using the MSD imager. EC50 was calculated by fitting log VHH concentration versus log ECLU in Prism (Graphpad). The increase in EC₅₀ (>50-fold) due to anti-VHH detection was used as a measure to determine whether VHH recognized buried epitope on pIgR.

[18] = target: T4, human pIgR extracellular domain (ECD); test: ECL (MSD), hpIgR-ECD coated, anti-Fc detection
Procedure: as §4

[19] = target: T5, human pIgR, full-length, on cells; test: cell-based or functional assay; remark: listed apart in the source
[20] = target: T5, human pIgR, full-length, on cells; test: flow cytometry on MDCK-hpIgR cells
Procedure: (§5) Flow Cytometry was performed as follows. To test whether VHH-mono-Fc molecules recognize cell-surface hpIgR, Madin-Darby canine kidney (MDCK) cells engineered to express full-length hpIgR were used. Cells were cultured in Dulbecco's modified Eagle's medium containing 10% fetal calf serum at 37° C. with 5% CO₂. Cells were split into equal fractions (≈70,000 cells) and incubated with increasing concentrations of VHH-mono-Fc molecules for 30 min at 4 C. […] Cells were washed twice with cold staining buffer, resuspended in running buffer and analyzed with an iQue Screener (IntelliCyt Corporation). Binding was assessed by RL1 (A647) Geomeans from the live cell population and EC50 was calculated by fitting log VHH concentration versus MFI in Prism (Graphpad).

[21] = target: T5, human pIgR, full-length, on cells; test: flow cytometry on MDCK-hpIgR cells; summary table, repeats Table 1; remark: listed apart in the source
Procedure: as §5

[22] = target: T5, human pIgR, full-length, on cells; test: cell-based or functional assay; remark: listed apart in the source
[23] = target: T4, human pIgR extracellular domain (ECD); test: BLI; summary table, repeats Table 1; remark: listed apart in the source
[24] = target: T8, human pIgR extracellular domain 2 (D2); test: ECL (MSD) heat map, HIS-tagged construct captured via anti-HIS, anti-human-Fc detection;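 also: VHH-mono-Fc molecules tested at 100 µg/ml for 2 h on captured His-tagged pIgR constructs (10 µg/ml), read-out as electrochemiluminescence units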
Procedure: as §1, §2

[25] = target: T6, human pIgR extracellular domain …; test: BLI (Octet RED384), 1:1 fit, 25 C, PBS
[26] = target: T4, human pIgR extracellular domain (ECD); test: BLI (Octet RED384), 1:1 fit, 25 C, PBS; remark: listed apart in the source
hpIgR_D2-D3 [27] = target: T7, hpIgR_D2-D3; test: ECL (MSD) heat map, HIS-tagged construct captured via anti-HIS, anti-human-Fc detection
[28] = target: T9, human pIgR extracellular domain …; test: as above
[29] = target: T6, human pIgR extracellular domain …; test: BLI (Octet RED384), 1:1 fit, 25 C, PBS; column kdis
[30] = target: T4, human pIgR extracellular domain (ECD); test: as above; remark: listed apart in the source

Kd [3]: 22 nM | Fold change in EC50 [4]: 180 fold | EC50 [5]: 32.9 nM | Kd [6]: 22 nM | Kd (hpIgR_D2-D3 [8]): 86.1 nM | kon (hpIgR_D2-D3 [8]): 14000 M⁻¹ s⁻¹ | Kd [9]: 83.8 nM | kon [9]: 19100 M⁻¹ s⁻¹ | Kd [10]: 76 nM | kon [10]: 14400 M⁻¹ s⁻¹ | Kd [11]: 77.3 nM | kon [11]: 19200 M⁻¹ s⁻¹ | koff (hpIgR_D2-D3 [12]): 0.0012 s⁻¹ | koff [13]: 0.0016 s⁻¹ | koff [14]: 0.0011 s⁻¹ | koff [15]: 0.00149 s⁻¹ | Transcytosis (Fold Incr.) [16]: 12.6 fold | EC50 [17]: 206 nM | EC50 [18]: 1.1 nM | increase in their apical concentration relative to control VHH (MDCK-hpIgR monolayers) [19]: > 10 fold | EC50 [20]: 32.9 nM | EC50 [21]: 32.9 nM | For. Trans. (Fold Incr.) [22]: 15.1 fold | Rev. Trans (Fold Incr.) [22]: 8 fold | Kd [23]: 22 nM
B1: VHH4-linker-mono-Fc protein (Fc fusion)
chain: EVQVVESGGGLVQAGGSLRLSCAVSGTSVSSNAMGWYRQAPGKQREWVGFIDRIATTTIATSVKGRFAITRDNAKNTVYLQMSGLKPEDTAVYYCNHPLTARWGQGTQVTVSSEPKTPKPQPQPQLQPQPNPTTESKSPKSPAPELLGGPSVFLFPPKPKDTLMISRTPEVTCVVVDVSHEDPEVKFNWYVDGVEVHNAKTKPREEQYNSTYRVVSVLTVLHQDWLNGKEYKCKVSNKALPAPIEKTISKAKGQPREPQVYTKPPSREEMTKNQVSLSCLVKGFYPSDIAVEWESNGQPENNYKTTVPVLDSDGSFRLASYLTVDKSRWQQGNVFSCSVMHEALHNHYTQKSLSLSPGK
notes: also called VHH4-mono-Fc; hpIgR_073
binding result [1]: no binding (tested: 100 ug/ml (single concentration)) | binding result [2]: no binding (tested: 100 ug/ml (single concentration)) | binding result (hpIgR_D3): no binding (tested: 100 ug/ml (single concentration)) | binding result [7]: no binding (tested: 100 ug/ml (single concentration))

Kd [3]: 4 nM | Kd [25]: 12.6 nM | kon [25]: 133000 M⁻¹ s⁻¹ | Kd [26]: 19.6 nM | kon [26]: 79300 M⁻¹ s⁻¹ | Fold change in EC50 [4]: 1.8 fold | EC50 [5]: 1.5 nM | Kd [6]: 4 nM | Transcytosis (Fold Incr.) [16]: 22.4 fold | EC50 [17]: 0.8 nM | EC50 [18]: 0.4 nM | increase in their apical concentration relative to control VHH (MDCK-hpIgR monolayers) [19]: > 10 fold | koff [29]: 0.00169 s⁻¹ | koff [30]: 0.00156 s⁻¹ | EC50 [20]: 1.5 nM | EC50 [21]: 1.5 nM | For. Trans. (Fold Incr.) [22]: 24.2 fold | Rev. Trans (Fold Incr.) [22]: 6.6 fold | Kd [23]: 4 nM
B2: VHH9-linker-mono-Fc protein (Fc fusion)
chain: QVQLVESGGGLVQAGGSLRLSCAVSGRTFSTYRMGWFRQAPGKERSFVAAISWSGGSTTYADPVKGRFTISRDNAKNTVYLRMNSLKPEDTAVYYCNDQRGYWGQGTLVTVSSEPKTPKPQPQPQLQPQPNPTTESKSPKSPAPELLGGPSVFLFPPKPKDTLMISRTPEVTCVVVDVSHEDPEVKFNWYVDGVEVHNAKTKPREEQYNSTYRVVSVLTVLHQDWLNGKEYKCKVSNKALPAPIEKTISKAKGQPREPQVYTKPPSREEMTKNQVSLSCLVKGFYPSDIAVEWESNGQPENNYKTTVPVLDSDGSFRLASYLTVDKSRWQQGNVFSCSVMHEALHNHYTQKSLSLSPGK
notes: made in CHO cells; also called VHH9-mono-Fc; hpIgR_221
binding result [1]: no binding (tested: 100 ug/ml (single concentration)) | binding result [2]: no binding (tested: 100 ug/ml (single concentration)) | binding result [24]: no binding (tested: 100 ug/ml (single concentration)) | binding result (hpIgR_D3): no binding (tested: 100 ug/ml (single concentration)) | binding result (hpIgR_D2-D3 [27]): no binding (tested: 100 ug/ml (single concentration)) | binding result [28]: no binding (tested: 100 ug/ml (single concentration))
